{"source": "the nanobody polyreactivity screen of Harvey et al. (2022)", "data": [{"experiment": "yeast display, Sf9 membrane polyspecificity reagent, FACS + sequencing; frameworks hold sequencing errors", "procedure,_shortened": "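A nanobody's polyreactivity label depends on the gate it was sorted from. Yeast display cells were stained with 10% biotinylated, detergent-solubilized Sf9 membrane reagent for 1 hour at 4 °C, enriched on streptavidin microbeads and sorted by FACS. The low and high (top ~1%) gates were set on anti-HA fluorescence for expression and streptavidin fluorescence for reagent binding.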", "values": [{"sequence": "QVQLVESGGCLGQAGGSLRLTCAASAFTFRHYTKGWYRQAPGKVRVLVAVITRSGGSTYYADSVKGRFTISRDNAKNTVYLQMNRLKPEDTAVYYCAARYKREYNYWGQGTQVTVSS", "polyreactivity (PSR sort gate)": "high polyreactivity"}, {"sequence": "QVQLVESGGGLVQAGGSLRLSCAASGIILGYYAMGWYRQAPGKERELVAAITRSGGRTYYADSVKGRFTISRDNAKNTVYLQMNSLKPEDTGVYYCAADDPYTPQYPDVTYDYWGQGTQVTVSS", "polyreactivity (PSR sort gate)": "high polyreactivity"}, {"sequence": "QVQLVESGGGLVQAGGSLRLSCAATGRIFSFYAMGWYRQAPGKERELVAAITWGDGSTYYAVSVKGRFTISRDNAKNTVYLQMNSLKPEDTAVYYCNKTYIDTTVYDVIMDYWGQGTQVTVSS", "polyreactivity (PSR sort gate)": "low polyreactivity"}, {"sequence": "QVQLVESGGGLVHAGGSLGLICAASGFIFYRYAMGWYRQAPGKERELVAAISWSGGTTYYADSVKGRFSISRDNAKNTVYLQMNSLKPEDTAVYYCAATRLRTEYYWGHGTQVTVSS", "polyreactivity (PSR sort gate)": "high polyreactivity"}, {"sequence": "QVHLVDSGGGLVQAGGSLRLSCAASGSTSGTNAMGWYRQAPGKERELVAGISYRGGSTYYADSVKGRFTISRDNAKNTVYLQMNSLKPEDTAVYYCAARKLKYRREYWGQGTQVTVSS", "polyreactivity (PSR sort gate)": "high polyreactivity"}, {"sequence": "QVQLVESGGGLVQAGGSLRLSCAASGRPSSLMNMGWYRQAPGKERELVAAISTSGGSTYYADSVKGRFTISRDNAKNTVYLQMNSLKPEDTAVYYCAATIGRRSYNQMYYWGQGTQVTVSS", "polyreactivity (PSR sort gate)": "high polyreactivity"}]}]}
